Earlier results in paper PMC5871566.
Read-outs that look alike come from different tables or passages of the source.

Experiments:
[1] = target: C4b (Homo sapiens) (UniProt P0C0L4)
[2] = target: C4b (Homo sapiens) (UniProt P0C0L4); remark: listed apart in the source

Chain of UniProt P0C0L4 (P0C0L4 20-1744, chain 1 of 2): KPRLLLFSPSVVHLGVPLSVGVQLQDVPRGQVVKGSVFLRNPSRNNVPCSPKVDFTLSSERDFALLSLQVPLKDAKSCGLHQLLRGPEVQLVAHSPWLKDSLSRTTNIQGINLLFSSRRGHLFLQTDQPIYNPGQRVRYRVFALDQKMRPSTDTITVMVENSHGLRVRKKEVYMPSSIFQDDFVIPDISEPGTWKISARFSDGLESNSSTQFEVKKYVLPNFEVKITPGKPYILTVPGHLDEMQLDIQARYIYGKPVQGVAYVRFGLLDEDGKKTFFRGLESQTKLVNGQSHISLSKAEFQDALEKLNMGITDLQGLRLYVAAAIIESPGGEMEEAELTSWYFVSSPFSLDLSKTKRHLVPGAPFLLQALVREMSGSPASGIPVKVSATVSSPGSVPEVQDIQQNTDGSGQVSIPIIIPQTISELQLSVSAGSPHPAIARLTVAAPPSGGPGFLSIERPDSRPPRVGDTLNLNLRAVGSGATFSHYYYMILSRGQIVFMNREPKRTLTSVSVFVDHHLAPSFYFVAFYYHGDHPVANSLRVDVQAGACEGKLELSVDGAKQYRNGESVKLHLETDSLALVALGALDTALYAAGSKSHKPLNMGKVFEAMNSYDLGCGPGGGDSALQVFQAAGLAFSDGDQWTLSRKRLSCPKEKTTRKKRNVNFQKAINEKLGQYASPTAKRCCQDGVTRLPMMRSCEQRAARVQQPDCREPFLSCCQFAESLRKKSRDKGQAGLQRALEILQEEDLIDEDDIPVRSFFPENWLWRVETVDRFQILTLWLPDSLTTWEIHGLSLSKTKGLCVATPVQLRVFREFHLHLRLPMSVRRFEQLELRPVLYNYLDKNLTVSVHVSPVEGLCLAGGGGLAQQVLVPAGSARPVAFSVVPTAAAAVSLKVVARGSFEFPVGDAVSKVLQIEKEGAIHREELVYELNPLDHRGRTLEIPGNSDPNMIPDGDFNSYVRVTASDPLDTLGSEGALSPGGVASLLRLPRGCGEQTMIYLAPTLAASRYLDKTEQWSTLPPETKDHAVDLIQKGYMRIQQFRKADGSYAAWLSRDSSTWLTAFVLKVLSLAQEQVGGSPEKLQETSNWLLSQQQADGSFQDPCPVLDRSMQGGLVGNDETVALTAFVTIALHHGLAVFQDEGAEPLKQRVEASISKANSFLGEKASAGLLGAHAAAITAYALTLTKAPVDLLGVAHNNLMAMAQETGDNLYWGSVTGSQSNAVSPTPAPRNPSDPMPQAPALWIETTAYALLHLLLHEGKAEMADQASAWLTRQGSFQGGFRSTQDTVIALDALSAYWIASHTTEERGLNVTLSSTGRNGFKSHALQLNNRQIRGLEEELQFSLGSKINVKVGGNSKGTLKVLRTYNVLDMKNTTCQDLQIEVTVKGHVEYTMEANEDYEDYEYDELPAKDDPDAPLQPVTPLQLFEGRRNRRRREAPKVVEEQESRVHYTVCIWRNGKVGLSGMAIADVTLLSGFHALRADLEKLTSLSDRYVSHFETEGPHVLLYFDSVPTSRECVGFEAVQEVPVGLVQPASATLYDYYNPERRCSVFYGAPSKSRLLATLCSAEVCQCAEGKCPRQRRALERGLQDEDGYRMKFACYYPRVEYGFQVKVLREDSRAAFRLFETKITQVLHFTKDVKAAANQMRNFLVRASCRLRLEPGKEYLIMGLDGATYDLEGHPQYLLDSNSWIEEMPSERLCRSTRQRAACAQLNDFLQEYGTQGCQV
Chain of UniProt P0C0L4 (P0C0L5 20-1744, chain 2 of 2, further chain): as the sequence (P0C0L4 20-1744, chain 1 of 2) above, with A888T, D1054G, P1101L, C1102S, L1105I, D1106H, N1157S, V1188A, L1191R, S1267A counted along it

Row | Substance | Kd [1] [µM] | Kd [2] [µM]
1 | Eap34 domains 3-4 (from UniProt Q99QS1) | 0.525 | 
2 | Eap individual domains (domain 3 or 4) domain 3 or domain 4 (from UniProt Q2FWW1) |  | 40
